US20210047373A1, “BETA BARREL POLYPEPTIDES AND METHODS FOR THEIR USE” (UNIVERSITY OF WASHINGTON, priority 2018, published 2021)
Substitutions are numbered along the chain they refer to. Marks after values point to notes of the source that are not given here.

B1: b32: SEQ ID NO:12; monomeric design, activates DFHBI fluorescence (protein)
chain: MGQEVAQVLPGDWQVHMTNEDGQTSTGTVTFQPRSPYTFDVKFKGTMSDGRPITGKGKMTMKTPDTMDIDVTYSDGKKVTGKVTMKSPTQLDWDLTTSDGSKVTGTSHRQE
modifications: (1)..(1) optionally absent
B2: b11: SEQ ID NO:4; monomeric design with disulfide bond, activates DFHBI fluorescence (protein)
chain: MCRAASLLPGTWQVTMTNEDGQTSQGQMHFQPRSPYTLDVKAQGTMSDGRPIQGKGKVTCKTPDTMDVDITYSDGKQVQGQVTLDSPTQFKFDVTTSDGSKVTGTLQRQE
modifications: (1)..(1) optionally absent
B3: b11L5F: SEQ ID NO:25; b11 with a 5-residue fifth turn (protein)
chain: MCRAASLLPGTWQVTMTNEDGQTSQGQMHFQPRSPYTLDVKAQGTISDGRPISGKGKVTCKTPDTMDVDITYPSLGNMKVQGQVTLDSPTQFKFDVTTSDGSKVTGTLQRQE
modifications: (1)..(1) optionally absent
B4: b11L5F.1: SEQ ID NO:26; b11L5F triple mutant 83I_95A_103L without disulfide (protein)
chain: B3 chain with C2S, K41V, K55Y, C60V, V84I, V96A, V104L
modifications: (1)..(1) optionally absent
B5: mFAP1: SEQ ID NO:33; variant of b11L5F.2 (protein)
chain: MSRAAQLLPGTWQTTMTNEDGQTSQGQMHFQPRSPYTLDVVAQGTISDGRPISGYGKVTVKTDDTLDVDITYPSLGNIKVQGQVTMDSPTQFKFDATTSDGKKLTGTLQRQE
modifications: (1)..(1) optionally absent
B6: b11L5F.2: SEQ ID NO:27; second round design from b11L5F.1 (protein)
chain: MNRAAQLLPGTWQVTMTNEDGQTSQGQMHFQPRSPYTLDIVAQGTISDGRPISGYGKVTVKTPDTMHVNITYPSLGNIKVQGQITLDSPTQFTWNSTTSDGKKLTGTLQRQE
modifications: (1)..(1) optionally absent
B7: mFAP2.3: SEQ ID NO:58 (protein)
chain: MSRAAQLLPGTWQVTMTNEDGQTSQGQMHFQPRSPYTMDVVAQGTISDGRPIVGYGKVTVKTPDTLDVDITYPSLGNIKAQGQITMDSPTQFKFDATTKGENDFHGRLTGTLQRQE
modifications: (1)..(1) optionally absent
B8: mFAP2.4: SEQ ID NO:59 (protein)
chain: B7 chain with V40I, V58A, E101A, N102G, D103N, H105T
modifications: (1)..(1) optionally absent
B9: mFAP2.5: SEQ ID NO:60; mutations of mFAP2.3 and mFAP2.4 combined (protein)
chain: B7 chain with M28W, V40I, V58A, F94W
modifications: (1)..(1) optionally absent

How the values were obtained:
[1] = previously reported value, cited from earlier work
[2] = Circular dichroism, thermal and GuHCl denaturation; assay type: physicochemical; settings: CD
Method: Circular dichroism (CD). Purified protein samples were prepared at 0.5 mg/ml in 20 mM Tris buffer (150 mM NaCl, pH8.0) or PBS buffer (25 mM phosphate, 150 mM NaCl, pH7.4). Wavelength scans from 195 nm to 260 nm were recorded at 25 degrees Celsius, 75 degrees Celsius, 95 degrees Celsius and cooling back to 25 degrees Celsius. Thermal denaturation was monitored at 220 nm or 226 nm from 25 degrees Celsius to 95 degrees Celsius. Near-UV wavelength scan from 240 nm to 320 nm and tryptophan fluorescence emission were recorded in the absence and presence of 5M guanidinium chloride (GuHCl). Chemical denaturation in GuHCl was monitored by both tryptophan fluorescence and near-UV CD signal at 285 nm. The concentration of the GuHCl stock solution was measured with a refractometer (Spectronic Instruments, Inc). Far-UV CD experiments were performed on an AVIV model 420 CD spectrometer (Aviv Biomedical, Inc). Near-UV CD and tryptophan fluorescence experiments were performed on a Jasco J-1500 CD spectrometer (Jasco, Inc). Protein concentrations were determined by 280 nm absorbance with a NanoDrop™spectrophotometer (ThermoScientific, Inc). Melting temperatures were estimated by smoothing the sparse data with a Savitsky-Golay filter of order 3 and approximating the smoothed data with a cubic spline to compute derivatives. Reported Tm values are the inflection points of the melting curves.

[3] = Photophysical characterization (absorbance, excitation, emission, extinction coefficient, quantum yield); assay type: physicochemical
[4] = Fluorescence activation / brightness with DFHBI; assay type: biochemical; settings: for Activation of DFHBI fluorescence: monomeric designs; for Fluorescence brightness, 100 nM DFHBI / Fluorescence brightness, 10 μM DFHBI: normalized 0 to 1 across all three chromophores, average ± SD of two protein concentrations; for Increase in fluorescence of the phenolate form of DFHBI: pH 7.36, versus mFAP2.2
Method: (§1) Fluorescence binding assay. Protein-activated DFHBI fluorescence signals were measured in 96-well plate format (Corning 3650) on a Synergy neo2 plate reader (BioTek, Inc) with λex=450 nm or 460 nm and λem=500 nm or 510 nm. Binding reactions were performed at […] in PBS pH7.4 buffer. Protein concentrations were determined by 280 nm absorbance as described above. DFHBI (Lucerna, Inc) were resuspended in DMSO as instructed to make 100 mM stock and diluted in PBS to 0.5-10 μM. Approximate emission spectra were recorded for active designs from 490 to 600 nm.
(§2) Table 3A-C. Brightness and chromophore affinities of selected mFAP variants. Fluorescence brightness measurements at 10 μM (top table) and 100 nM (middle table) chromophore concentrations were normalized from 0 to 1 across all three chromophores (DFHBI, DFHBI-1T, and DFHO), and the normalized values for two protein concentrations tested for each chromophore at each chromophore concentration were averaged and standard deviations of the average computed. Reported values are the normalized averages and standard deviations of the means for each chromophore concentration and each chromophore. Reported relative densitometry values are the relative densitometry values normalized from 0 to 1 and represent how well each design expresses relative to one another in Lemo21(DE3) E. coli cultures. Thermodynamic dissociation constants (bottom table) are obtained by non-linear least squares fitting of chromophore titrations (n=1) to a single binding site isotherm, and values reported with the standard deviation of the fit. Where the obtained Kd values are below the protein concentration tested, the Kd and standard deviation of the fit are reported in parentheses. Values with “N/D” were not determined.

[5] = Chromophore titration, fit to single binding site isotherm: DFHBI; settings: ± SD of the fit
Method: as §1, §2

[6] = Chromophore titration, fit to single binding site isotherm: DFHBI-1T; settings: n=1 titration; ± SD of the fit; Table 3C
Method: as §2

[7] = Chromophore titration, fit to single binding site isotherm: DFHO; settings: n=1 titration; ± SD of the fit; Table 3C
Method: as §2

[8] = Fluorescence brightness with DFHBI-1T; assay type: biochemical; settings: normalized 0 to 1 across all three chromophores; average ± SD of two protein concentrations
Method: as §2

[9] = Fluorescence brightness with DFHO; assay type: biochemical; settings: normalized 0 to 1 across all three chromophores; average ± SD of two protein concentrations
Method: as §2

[10] = test system: E. coli, yeast, and mammalian cells; experiment: Confocal imaging of cells expressing mFAPs with DFHBI; assay type: cell-based; settings: 20 μM DFHBI
Method: To determine whether the designed DFHBI-binding fluorescence-activating proteins function in living cells, we imaged mFAP1- and mFAP2-DFHBI complexes in E. coli, yeast, and mammalian cells by confocal microscopy. […] The quantum yield of mFAP1 and mFAP2 in complex with DFHBI is 2.0% and 2.1% respectively (Table 2).
Confocal image acquisition. Mammalian cell imaging of mFAP1 and mFAP2 was performed in NIH3T3 cells (Flp-In-3T3, Thermo Fisher Scientific, Inc). NIH3T3 cells were cultured in high-glucose DMEM, 4 mM L-glutamine, 10% fetal bovine serum (FBS, Life Technologies, Inc) at 37 degrees Celsius, 5% CO2. Cells were plated at 4×10^4 cells/mL in 35 mm glass-bottomed dishes (Matek, Inc) that were coated with poly-D-lysine. Cells were transfected 24 hours after plating with Lipofectamine™ 3000 (Thermo Fisher Scientific, Inc) at a ratio of 3 μL reagent:1 μL DNA, according to manufacturer's instructions, with […] plasmids of mFAPs or mFAP fusions (1.25 μg mCherry™ plasmid was added to the cytosolic constructs as a transfection control). Right before imaging, cell media was replaced with FluorBrite™ DMEM (Thermo Fisher Scientific, Inc) media supplemented with GlutaMax™ (Thermo Fisher Scientific, Inc) and 10% v/v FBS, and 20 μM DFHBI. […] A white light laser of 488 was used to excite the DFHBI and detected by a HyD detector, over a range of 495-550 nm. […]

[11] = n=1 titration, Table 3C, read-out: DFHBI Kd
[12] = obtained Kd below the protein concentration tested, read-out: DFHBI Kd, fit value in parentheses

| Molecule | Kd [5, 11] | Kd [6] | Kd [7] | Fluorescence brightness, 100 nM DFHBI [4] | Fluorescence brightness, 10 μM DFHBI [4] | Fluorescence brightness, 100 nM DFHBI-1T [8] | Fluorescence brightness, 10 μM DFHBI-1T [8] | Fluorescence brightness, 100 nM DFHO [9] | Fluorescence brightness, 10 μM DFHO [9] | also measured |
| --- | --- | --- | --- | --- | --- | --- | --- | --- | --- | --- |
| CC1=N/C(=C\c2cc(F)c(O)c(F)c2)C(=O)N1CC(F)(F)F [DFHBI-1T] |  |  |  |  |  |  |  |  |  | Extinction Coefficient ([1]; Table 4): 35,400^† M^−1 · cm^−1; λabs ([1]; Table 4): 422^† nm; λem ([1]; Table 4): 495^† nm; λex ([1]; Table 4): 426^† nm; Reported Quantum Yield [1]: 0.00098^† |
| B1 |  |  |  |  |  |  |  |  |  | Thermal stability [2]: undergo reversible thermal melting transitions; Absorption peak with DFHBI bound [3]: 450 nm; Emission peak with DFHBI bound [3]: 510 nm; Activation of DFHBI fluorescence [4]: found to activate DFHBI fluorescence |
| B2 |  |  |  |  |  |  |  |  |  | Thermal stability [2]: undergo reversible thermal melting transitions; Absorption peak with DFHBI bound [3]: 450 nm; Emission peak with DFHBI bound [3]: 510 nm; Activation of DFHBI fluorescence [4]: found to activate DFHBI fluorescence |
| B3 |  |  |  |  |  |  |  |  |  | Fluorescence activity in comparison with b11 ([4]; 100 μM protein+10 μM DFHBI): 5.2 fold; Increase of fluorescence intensity ([4]; fifth turn changed to a five-residue turn, versus b11): fourfold |
| B4 |  |  |  |  |  |  |  |  |  | Higher DFHBI fluorescence ([4]; substitutions at V103, V95, V83 of b11L5F): tenfold |
| B5 | < 0.5 µM | 10.8 ± 1 µM | 7.8 ± 2.89 µM | 0.18 ± 0.0 | 0.13 ± 0.02 | 0.01 ± 0.0 | 0.01 ± 0.0 | 0.01 ± 0.0 | 0.0 ± 0.0 | Quantum yield in complex with DFHBI ([3]; absolute): 2.0%; Kd [5, 12]: 0.496 µM; In vivo fluorescence activation [10]: showed in vivo fluorescence activation |
| B6 |  |  |  |  |  |  |  |  |  | Increase of fluorescence, second round of design ([4]; versus b11L5F.1): approximately 1.4 fold |
| B7 | < 0.5 µM | 1.58 ± 0.34 µM | 10.4 ± 3.59 µM | 0.15 ± 0.0 | 0.2 ± 0.03 | 0.52 ± 0.02 | 0.67 ± 0.04 | 0.02 ± 0.0 | 0.01 ± 0.0 | Kd [5, 12]: 0.146 µM; Increase in fluorescence of the phenolate form of DFHBI [4]: ~1.1 fold |
| B8 | 1.31 ± 0.1 µM | 38.7 ± 5.71 µM | 32.7 ± 14.2 µM | 0.69 ± 0.03 | 0.69 ± 0.06 | 0.01 ± 0.0 | 0.01 ± 0.0 | 0.01 ± 0.0 | 0.0 ± 0.0 | Increase in fluorescence of the phenolate form of DFHBI [4]: ~3.4 fold |
| B9 | 1.13 ± 0.09 µM | 52.5 ± 7.48 µM | 34.2 ± 13.7 µM | 0.83 ± 0.02 | 0.8 ± 0.03 | 0.01 ± 0.0 | 0.01 ± 0.0 | 0.01 ± 0.0 | 0.0 ± 0.0 |  |
